Two molecules from patent US7256259 (WISCONSIN ALUMNI RESEARCH FOUNDATION, dated 2007) can be followed below.

Where no end group is shown, it is not given here. [ ]: non-standard residue; d: D form. The star is where a group is joined. Lys(N3) = [N-]=[N+]=NCCCC[C@H](N)C(=O)O; N3 = azido group, [N-]=[N+]=N*; PEG = not defined here

In this test the target is T1, S-protein (UniProt P61823 47-150).
T1 construct: also called purified S-protein; commercial S-protein (Sigma Chemical)
T1 sequence (looked up): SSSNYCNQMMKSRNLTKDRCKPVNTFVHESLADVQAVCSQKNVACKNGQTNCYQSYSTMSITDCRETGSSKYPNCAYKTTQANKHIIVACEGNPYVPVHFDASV
Nature of the test: S-protein incubated on a glass slide with immobilized azido-S15; detected by activity assay and immunostaining. The protocol:
An amine-derivatized glass slide was treated with an excess of PEG having succinimidyl ester termini followed by diphenylphosphinomethanethiol resulting in a surface-bound phosphinothioester, as illustrated in Scheme 2. It is believed that the PEG layer (Mr) 3,400) prevented the non-specific attachment of protein to the glass surface. Serial dilutions of (N_3)Lys1 S15 and (N_3)Lys1 S15 were spotted on this phosphinothioester-derivatized slide. The peptide concentrations were 5.64 µM-56.4 pM for (N_3)Lys1 S15 and 4.38 µM-43.8 pM for (N_3)Lys1 S15. Afterwards, S-protein was spotted on the slide, which was washed with buffer. If S15 was successfully immobilized to the slide through the Staudinger ligation, the S-protein would bind to the immobilized S15 resulting in immobilized RNase S'.
Two types of assays were used to detect the presence of immobilized RNase S'. First, the ribonucleolytic activity of each spot was determined with a fluorogenic substrate. […]
RNase S' attached to the plate was visualized by immunostaining. […] RNase S' was detected by using a Fluorinate SI fluorescence scanner (Molecular Dynamics). (See FIG. 1A) The quantity of immobilized protein was determined with IMAGEQUANT densitometry software (Molecular Dynamics) and a standard curve generated by spotting various concentrations of Alexa Fluor® 488-conjugated secondary antibody.

B1: N3-PEG-S15 (peptide)
peptide: {N3-PEG}-KETAAAKFERQHMDS
modifications: reading uncertain
notes: Synthetic S15 (first 15 residues of S-peptide) carrying N3-PEG at its N-terminus; In the assay it was immobilized on a phosphinothioester-derivatized glass slide; also called azido-S15; azido-peptide (main-chain azide)
Regarding B1, the binding result is given as “binds”. The value for [Lys(N3)]ETAAAKFERQHMDS (also called azido-S15) [(N3)Lys1 S15] was “binds”.
